The values below come from PMC4330389, “Domain organization within the nuclear export factor Mex67:Mtr2 generates an extended mRNA binding surface”.

Changes are numbered by the printed parent chain.

Common to all, as to experiment: fluorescence anisotropy; 20 mM Tris pH 8.0, 50 mM NaCl, 10 nM DY-547 RNA; temperature not stated
One data set has as its target T1, Mex67LRR-NTF2L;Mtr2 (Saccharomyces cerevisiae;Saccharomyces …, UniProt Q99257;P34232 101-487;1-184, |).
T1 sequence 1: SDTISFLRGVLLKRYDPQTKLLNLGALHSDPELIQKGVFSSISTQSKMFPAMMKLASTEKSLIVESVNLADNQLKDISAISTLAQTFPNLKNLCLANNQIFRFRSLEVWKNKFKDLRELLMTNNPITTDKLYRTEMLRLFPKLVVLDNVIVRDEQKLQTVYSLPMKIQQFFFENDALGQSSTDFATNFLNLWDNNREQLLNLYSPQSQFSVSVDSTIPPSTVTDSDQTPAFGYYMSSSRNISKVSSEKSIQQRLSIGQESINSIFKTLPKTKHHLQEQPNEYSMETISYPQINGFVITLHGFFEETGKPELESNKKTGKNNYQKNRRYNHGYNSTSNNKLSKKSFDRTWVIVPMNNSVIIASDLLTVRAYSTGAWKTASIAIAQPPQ
T1 sequence 2: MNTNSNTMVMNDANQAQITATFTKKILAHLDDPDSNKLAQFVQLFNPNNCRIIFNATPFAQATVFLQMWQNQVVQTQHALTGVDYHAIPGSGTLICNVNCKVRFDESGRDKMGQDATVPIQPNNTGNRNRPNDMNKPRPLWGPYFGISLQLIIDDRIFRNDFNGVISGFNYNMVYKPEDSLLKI
To be noted: protein: recombinant;recombinant; tags: His6 removed by TEV;; copies: 1;1.

A further data set addresses T2, Mex67RRM-LRR (Saccharomyces cerevisiae, UniProt Q99257 2-262).
T2 sequence: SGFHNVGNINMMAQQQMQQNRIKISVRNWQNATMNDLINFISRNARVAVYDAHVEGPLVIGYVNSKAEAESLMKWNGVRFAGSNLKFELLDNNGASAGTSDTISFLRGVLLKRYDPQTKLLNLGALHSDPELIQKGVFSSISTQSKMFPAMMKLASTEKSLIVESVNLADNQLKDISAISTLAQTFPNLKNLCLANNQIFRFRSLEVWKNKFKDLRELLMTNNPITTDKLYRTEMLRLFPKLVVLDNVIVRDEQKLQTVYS
To be noted: protein: recombinant; tags: His6 removed by TEV.

For data set [1], the target named is T3, Mex67ΔUBA L263Y+M265Y;Mtr2 (Saccharomyces cerevisiae;Saccharomyces …, UniProt Q99257;P34232 1-487;1-184, L263Y;M265Y|).
T3 sequence 1: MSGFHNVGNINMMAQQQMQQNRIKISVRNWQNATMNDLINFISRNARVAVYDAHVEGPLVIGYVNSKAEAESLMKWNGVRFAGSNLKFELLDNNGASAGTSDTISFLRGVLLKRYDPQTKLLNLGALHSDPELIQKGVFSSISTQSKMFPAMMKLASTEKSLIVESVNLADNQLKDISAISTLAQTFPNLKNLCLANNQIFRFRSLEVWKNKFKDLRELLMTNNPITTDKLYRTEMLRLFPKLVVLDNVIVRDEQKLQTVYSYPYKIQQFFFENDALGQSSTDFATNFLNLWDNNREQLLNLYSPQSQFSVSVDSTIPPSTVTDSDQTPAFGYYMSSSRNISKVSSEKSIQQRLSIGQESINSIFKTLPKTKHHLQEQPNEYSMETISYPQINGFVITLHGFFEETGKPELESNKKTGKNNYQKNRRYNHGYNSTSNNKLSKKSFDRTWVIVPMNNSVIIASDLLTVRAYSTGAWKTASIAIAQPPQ
T3 sequence 2: T1 sequence 2
The conditions noted are these: protein: recombinant;recombinant; tags: His6 removed by TEV;; copies: 1;1.

The target in data set [2] is T4, Mex67 (full length):Mtr2;Mtr2 (Saccharomyces cerevisiae;Saccharomyces …, UniProt Q99257;P34232 1-599;1-184, |).
T4 sequence 1: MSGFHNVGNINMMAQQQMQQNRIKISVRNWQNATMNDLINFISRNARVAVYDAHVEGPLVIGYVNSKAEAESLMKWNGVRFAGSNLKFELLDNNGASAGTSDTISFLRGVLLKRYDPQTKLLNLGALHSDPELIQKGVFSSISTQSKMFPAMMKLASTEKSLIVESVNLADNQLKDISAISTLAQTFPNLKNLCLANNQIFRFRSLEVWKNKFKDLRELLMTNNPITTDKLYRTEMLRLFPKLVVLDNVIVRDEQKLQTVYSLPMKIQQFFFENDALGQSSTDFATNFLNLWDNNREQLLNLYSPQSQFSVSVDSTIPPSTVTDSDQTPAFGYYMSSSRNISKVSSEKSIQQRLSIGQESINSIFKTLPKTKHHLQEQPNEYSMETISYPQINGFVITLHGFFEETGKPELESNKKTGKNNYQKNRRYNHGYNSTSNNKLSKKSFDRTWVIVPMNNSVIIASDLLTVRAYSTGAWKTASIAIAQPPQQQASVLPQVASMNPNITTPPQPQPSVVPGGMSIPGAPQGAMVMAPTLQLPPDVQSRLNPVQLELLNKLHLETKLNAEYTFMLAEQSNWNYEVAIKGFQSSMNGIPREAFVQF
T4 sequence 2: T1 sequence 2
To be noted: protein: recombinant;recombinant, tags: His6 removed by TEV;, copies: 1;1.

The next data set addresses T5, Mex67ΔUBA;Mtr2 (Saccharomyces cerevisiae;Saccharomyces …, UniProt Q99257;P34232 1-487;1-184, |).
T5 sequence 1: T3 sequence 1 with Y263L, Y265M
T5 sequence 2: T1 sequence 2
The conditions noted are these: protein: recombinant;recombinant; tags: His6 removed by TEV;; copies: 1;1.

Data set [3] concerns the target T6, Mex67ΔUBA L263A+M265A;Mtr2 (Saccharomyces cerevisiae;Saccharomyces …, UniProt Q99257;P34232 1-487;1-184, L263A;M265A|).
T6 sequence 1: T3 sequence 1 with Y263A, Y265A
T6 sequence 2: T1 sequence 2
To be noted: protein: recombinant;recombinant; tags: His6 removed by TEV;; copies: 1;1.

For data set [4], the target named is T7, Mex67ΔUBA L263D+M265D;Mtr2 (Saccharomyces cerevisiae;Saccharomyces …, UniProt Q99257;P34232 1-487;1-184, L263D;M265D|).
T7 sequence 1: T3 sequence 1 with Y263D, Y265D
T7 sequence 2: T1 sequence 2
The conditions noted are these: protein: recombinant;recombinant; tags: His6 removed by TEV;; copies: 1;1.

The next data set concerns the target T8, Mex67NTF2L;Mtr2 (Saccharomyces cerevisiae;Saccharomyces …, UniProt Q99257;P34232 264-487;1-184, |).
T8 sequence 1: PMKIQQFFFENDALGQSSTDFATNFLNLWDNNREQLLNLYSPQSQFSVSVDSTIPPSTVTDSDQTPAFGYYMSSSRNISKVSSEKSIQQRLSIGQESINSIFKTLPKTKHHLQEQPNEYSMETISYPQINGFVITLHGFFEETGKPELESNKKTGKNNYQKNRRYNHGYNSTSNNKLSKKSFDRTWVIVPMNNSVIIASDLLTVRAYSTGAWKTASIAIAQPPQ
T8 sequence 2: T1 sequence 2
The conditions noted are these: protein: recombinant;recombinant; tags: His6 removed by TEV;; copies: 1;1.

As to AAAAAAAAAAAAAAA (ssRNA) [A15], the Kd with Mex67LRR-NTF2L;Mtr2 was found to be 340 nM; in the data set with Mex67RRM-LRR it was 12 µM; in data set [1] it was 420 nM; in data set [2] it was 260 nM; with Mex67ΔUBA;Mtr2, 310 nM; in data set [3], 640 nM. Besides, the results for the Kd (in data set [4]; in the data set with Mex67NTF2L;Mtr2) were 820 nM and 860 nM, respectively.

In the case of GGGGGGGGGGGGGGG (ssRNA) [G15], in data set [2] (may form higher order structure), the binding result is reported as “binds”.
